# Experimental data taken from the Immune Epitope Database (IEDB).
# pKd: −log10 of the molar value.
# Experiments:
# Assay in all cases: IEDB peptide-MHC binding, purified MHC/competitive/radioactivity; filed as Kd, often an IC50 or EC50 that approximates it; ≥ and ≤ were set here for values at or beyond the usual limits of such assays
# HLA-A*33:01 = biological target: HLA-A*33:01
# HLA-A*03:01 = biological target: HLA-A*03:01
# HLA-A*31:01 = biological target: HLA-A*31:01
# HLA-A*68:01 = biological target: HLA-A*68:01
# HLA-A*11:01 = biological target: HLA-A*11:01
# [1] = source organism: SARS coronavirus Tor2
# [2] = source organism: Dengue virus 1 Brazil/97-11/1997
# [3] = source organism: Dengue virus 3 Singapore/8120/1995
# [4] = source organism: Dengue virus 2 Jamaica/1409/1983
# [5] = source organism: Vaccinia virus WR
# [6] = source organism: Dengue virus 4 Philippines/H241/1956
# [7] = source organism: Dengue virus 3 Martinique/1243/1999
# [8] = source organism: Mammarenavirus machupoense
sequence,measurement,setting,value
AINSVPWSK,pKd,HLA-A*33:01; [1],4.97
same,pKd,HLA-A*03:01; [1],7.89
same,pKd,HLA-A*31:01; [1],5.93
same,pKd,HLA-A*68:01; [1],5.75
same,pKd,HLA-A*11:01; [1],8.73
ALFEPEREK,pKd,HLA-A*03:01; [2],7.23
ALILAYSNK,pKd,HLA-A*33:01; [1],≤ 4.36
same,pKd,HLA-A*03:01; [1],7.31
same,pKd,HLA-A*31:01; [1],5.42
same,pKd,HLA-A*68:01; [1],5.34
same,pKd,HLA-A*11:01; [1],7.71
AMCLNTFVLK,pKd,HLA-A*03:01; [3],8.03
same,pKd,HLA-A*11:01; [3],7.63
AVAPSMTMR,pKd,HLA-A*11:01; [4],7.48
AVLSAATETY,pKd,HLA-A*33:01; [5],5.06
same,pKd,HLA-A*03:01; [5],6.63
same,pKd,HLA-A*31:01; [5],4.98
same,pKd,HLA-A*68:01; [5],5.40
same,pKd,HLA-A*11:01; [5],6.57
CTDESRDRK,pKd,HLA-A*33:01; [5],≤ 4.11
same,pKd,HLA-A*03:01; [5],5.22
same,pKd,HLA-A*31:01; [5],≤ 4.26
same,pKd,HLA-A*68:01; [5],6.77
same,pKd,HLA-A*11:01; [5],6.66
DIKLDAVLDR,pKd,HLA-A*33:01; [5],6.81
same,pKd,HLA-A*03:01; [5],≤ 4.38
same,pKd,HLA-A*31:01; [5],4.75
same,pKd,HLA-A*68:01; [5],6.33
same,pKd,HLA-A*11:01; [5],≤ 4.16
DSLLITNTK,pKd,HLA-A*33:01; [5],8.29
same,pKd,HLA-A*03:01; [5],5.57
same,pKd,HLA-A*31:01; [5],4.73
same,pKd,HLA-A*68:01; [5],7.43
same,pKd,HLA-A*11:01; [5],6.18
DVKASMLEKY,pKd,HLA-A*33:01; [5],4.78
same,pKd,HLA-A*03:01; [5],≤ 4.61
same,pKd,HLA-A*31:01; [5],≤ 4.44
same,pKd,HLA-A*68:01; [5],6.25
same,pKd,HLA-A*11:01; [5],5.31
EDTMTYKCPR,pKd,HLA-A*33:01; [2],6.09
EIIGGNDMY,pKd,HLA-A*33:01; [5],≤ 4.11
same,pKd,HLA-A*03:01; [5],5.27
same,pKd,HLA-A*31:01; [5],≤ 4.11
same,pKd,HLA-A*68:01; [5],7.26
same,pKd,HLA-A*11:01; [5],≤ 4.45
ELALTDVEK,pKd,HLA-A*33:01; [5],5.24
same,pKd,HLA-A*03:01; [5],5.81
same,pKd,HLA-A*31:01; [5],5.01
same,pKd,HLA-A*68:01; [5],8.94
same,pKd,HLA-A*11:01; [5],6.29
ELVTRKCPQK,pKd,HLA-A*33:01; [5],≤ 4.49
same,pKd,HLA-A*03:01; [5],5.13
same,pKd,HLA-A*31:01; [5],≤ 4.15
same,pKd,HLA-A*68:01; [5],5.85
same,pKd,HLA-A*11:01; [5],6.29
EMYPRHRYSK,pKd,HLA-A*33:01; [5],6.49
same,pKd,HLA-A*03:01; [5],6.90
same,pKd,HLA-A*31:01; [5],5.94
same,pKd,HLA-A*68:01; [5],7.56
same,pKd,HLA-A*11:01; [5],5.95
ETFKIDAVR,pKd,HLA-A*33:01; [5],7.68
same,pKd,HLA-A*03:01; [5],≤ 4.54
same,pKd,HLA-A*31:01; [5],6.97
same,pKd,HLA-A*68:01; [5],8.79
same,pKd,HLA-A*11:01; [5],5.56
EVFGSTGDY,pKd,HLA-A*33:01; [5],≤ 4.11
same,pKd,HLA-A*03:01; [5],5.50
same,pKd,HLA-A*31:01; [5],≤ 4.11
same,pKd,HLA-A*68:01; [5],7.85
same,pKd,HLA-A*11:01; [5],7.88
EVHWNYKER,pKd,HLA-A*68:01; [6],7.82
EYRLRGEAR,pKd,HLA-A*33:01; [4],7.35
FLKSGAVVK,pKd,HLA-A*33:01; [5],4.71
same,pKd,HLA-A*03:01; [5],7.87
same,pKd,HLA-A*31:01; [5],5.32
same,pKd,HLA-A*68:01; [5],7.36
same,pKd,HLA-A*11:01; [5],6.46
FMEMFFDYNK,pKd,HLA-A*33:01; [5],5.65
same,pKd,HLA-A*03:01; [5],6.26
same,pKd,HLA-A*31:01; [5],6.14
same,pKd,HLA-A*68:01; [5],6.64
same,pKd,HLA-A*11:01; [5],7.06
FSNTIQSYK,pKd,HLA-A*33:01; [5],5.70
same,pKd,HLA-A*03:01; [5],7.59
same,pKd,HLA-A*31:01; [5],7.11
same,pKd,HLA-A*68:01; [5],8.23
same,pKd,HLA-A*11:01; [5],7.96
FSTSAADIK,pKd,HLA-A*33:01; [5],≤ 4.54
same,pKd,HLA-A*03:01; [5],5.66
same,pKd,HLA-A*31:01; [5],≤ 4.45
same,pKd,HLA-A*68:01; [5],8.59
same,pKd,HLA-A*11:01; [5],6.65
GAGLAFSLMK,pKd,HLA-A*11:01; [2],7.03
GFFLRKLTSR,pKd,HLA-A*31:01; [7],8.87
GISLGLILLK,pKd,HLA-A*03:01; [6],7.78
same,pKd,HLA-A*11:01; [6],7.10
GLLNGQGPMK,pKd,HLA-A*03:01; [7],8.02
GMSYSMCTGK,pKd,HLA-A*03:01; [4],7.51
same,pKd,HLA-A*11:01; [4],6.36
HSGVDVFYK,pKd,HLA-A*11:01; [6],6.77
IFSLKDTLKR,pKd,HLA-A*33:01; [7],6.49
IMDLHPGAGK,pKd,HLA-A*03:01; [4],7.39
ISQGAGWSLK,pKd,HLA-A*03:01; [4],6.70
same,pKd,HLA-A*11:01; [4],6.67
ISYDPKFEK,pKd,HLA-A*03:01; [6],6.94
same,pKd,HLA-A*11:01; [6],7.00
KAERVIDPR,pKd,HLA-A*31:01; [4],7.25
LAMGIMMLK,pKd,HLA-A*03:01; [2],7.12
same,pKd,HLA-A*68:01; [2],7.69
same,pKd,HLA-A*11:01; [2],7.49
LMSGKGIGK,pKd,HLA-A*03:01; [4],7.12
LTNTTTESR,pKd,HLA-A*68:01; [4],7.13
LTYQNKVVK,pKd,HLA-A*03:01; [7],7.93
same,pKd,HLA-A*11:01; [7],7.15
MLQGRGPLK,pKd,HLA-A*03:01; [4],≥ 9.00
same,pKd,HLA-A*11:01; [4],6.91
RFWELVDKER,pKd,HLA-A*31:01; [6],8.28
RFWELVDRER,pKd,HLA-A*31:01; [4],9.46
RLGVRATRK,pKd,HLA-A*68:01; source organism: Hepacivirus hominis,≤ 4.10
RLKMDKLELK,pKd,HLA-A*03:01; [7],7.46
RMLNILNGRK,pKd,HLA-A*03:01; [6],7.86
RQMEGEGVFK,pKd,HLA-A*03:01; source organism: Dengue virus 2 Peru/IQT2913/1996,7.62
RVIDPRRCLK,pKd,HLA-A*03:01; [2],8.06
same,pKd,HLA-A*31:01; [2],9.12
same,pKd,HLA-A*68:01; [2],7.55
SDGTFKIGLH,pKd,HLA-A*33:01; [8],≤ 4.32
same,pKd,HLA-A*31:01; [8],≤ 4.44
SGNDIANCLR,pKd,HLA-A*33:01; [2],6.85
STGSQLAKR,pKd,HLA-A*31:01; [2],6.67
VQTKPGLFK,pKd,HLA-A*03:01; [4],6.84
same,pKd,HLA-A*11:01; [4],6.99
VTFKTAHAK,pKd,HLA-A*03:01; [2],8.38
same,pKd,HLA-A*68:01; [2],7.36
same,pKd,HLA-A*11:01; [2],7.05
VTFKVPHAKR,pKd,HLA-A*68:01; [6],7.67
YQNKVVKVQR,pKd,HLA-A*33:01; [7],6.15
